Experimental data reported in publication PMC3695512, “Recognition of two distinct elements in the RNA substrate by the RNA-binding domain of the T. thermophilus DEAD box helicase Hera”.

Legend:
Details in all cases: protein: recombinant; label: 5'-fluorescein; hairpin with 5' single strand
Hera_RBD R449A = molecular target: T1, Hera_RBD R449A (Thermus thermophilus, UniProt O07897 424-510, R449A); assay: fluorescence anisotropy; 5 mM Mg2+; Anisotropy: 50 mM Tris/HCl pH 7.5, 150 mM NaCl, 5 mM MgCl2 (Fig 2), 25 C, 50 nM RNA; EMSA: same Tris/NaCl, 12% glycerol, 25 C; NMR: 25 mM Bis-Tris/HCl pH 6.0, 50 mM NaCl, 10% D2O, 37 C
T1 sequence: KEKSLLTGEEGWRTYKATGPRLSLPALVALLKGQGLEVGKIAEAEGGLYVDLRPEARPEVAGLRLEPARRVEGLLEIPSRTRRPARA

Hera_RBD R492A = molecular target: T2, Hera_RBD R492A (Thermus thermophilus, UniProt O07897 424-510, R492A); assay: as above
T2 sequence: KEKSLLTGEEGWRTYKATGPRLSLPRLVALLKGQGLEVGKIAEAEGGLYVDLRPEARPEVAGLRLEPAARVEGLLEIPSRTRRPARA

Hera_RBD K455A = molecular target: T3, Hera_RBD K455A (Thermus thermophilus, UniProt O07897 424-510, K455A); assay: as above
T3 sequence: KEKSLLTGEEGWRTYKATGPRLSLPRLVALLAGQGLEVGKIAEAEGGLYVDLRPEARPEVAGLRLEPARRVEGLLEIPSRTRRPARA

Hera_RBD R444A/R449A = molecular target: T4, Hera_RBD R444A/R449A (Thermus thermophilus, UniProt O07897 424-510, R444A;R449A); assay: as above
T4 sequence: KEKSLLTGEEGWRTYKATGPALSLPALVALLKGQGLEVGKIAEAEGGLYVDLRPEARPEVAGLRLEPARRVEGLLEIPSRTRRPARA

Hera_core = molecular target: T5, Hera_core (Thermus thermophilus, UniProt O07897 1-369); assay: fluorescence anisotropy; no ATP; 5 mM Mg2+; Anisotropy: 50 mM Tris/HCl pH 7.5, 150 mM NaCl, 5 mM MgCl2 (Fig 2), 25 C, 50 nM RNA; EMSA: same Tris/NaCl, 12% glycerol, 25 C; NMR: 25 mM Bis-Tris/HCl pH 6.0, 50 mM NaCl, 10% D2O, 37 C
T5 sequence: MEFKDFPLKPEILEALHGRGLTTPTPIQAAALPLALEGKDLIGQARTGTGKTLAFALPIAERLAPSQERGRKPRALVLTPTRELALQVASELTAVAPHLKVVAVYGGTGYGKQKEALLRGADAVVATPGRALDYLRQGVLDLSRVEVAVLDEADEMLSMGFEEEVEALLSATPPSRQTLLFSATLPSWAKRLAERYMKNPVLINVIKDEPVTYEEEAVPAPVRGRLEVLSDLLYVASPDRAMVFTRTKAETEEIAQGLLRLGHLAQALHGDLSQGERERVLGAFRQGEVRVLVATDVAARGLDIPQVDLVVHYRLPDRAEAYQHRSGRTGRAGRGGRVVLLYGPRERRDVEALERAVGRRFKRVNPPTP

Hera_RBD A452C = molecular target: T6, Hera_RBD A452C (Thermus thermophilus, UniProt O07897 424-510, A452C); assay: fluorescence anisotropy; 5 mM Mg2+; Anisotropy: 50 mM Tris/HCl pH 7.5, 150 mM NaCl, 5 mM MgCl2 (Fig 2), 25 C, 50 nM RNA; EMSA: same Tris/NaCl, 12% glycerol, 25 C; NMR: 25 mM Bis-Tris/HCl pH 6.0, 50 mM NaCl, 10% D2O, 37 C
T6 sequence: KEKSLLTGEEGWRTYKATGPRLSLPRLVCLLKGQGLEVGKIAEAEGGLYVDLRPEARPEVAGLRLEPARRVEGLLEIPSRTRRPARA

Hera_RBD G462C = molecular target: T7, Hera_RBD G462C (Thermus thermophilus, UniProt O07897 424-510, G462C); assay: fluorescence anisotropy; 5 mM Mg2+; negligible effect; Anisotropy: 50 mM Tris/HCl pH 7.5, 150 mM NaCl, 5 mM MgCl2 (Fig 2), 25 C, 50 nM RNA; EMSA: same Tris/NaCl, 12% glycerol, 25 C; NMR: 25 mM Bis-Tris/HCl pH 6.0, 50 mM NaCl, 10% D2O, 37 C
T7 sequence: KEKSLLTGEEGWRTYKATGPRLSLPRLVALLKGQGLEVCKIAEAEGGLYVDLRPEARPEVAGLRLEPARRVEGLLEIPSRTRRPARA

Hera_RBD K463A = molecular target: T8, Hera_RBD K463A (Thermus thermophilus, UniProt O07897 424-510, K463A); assay: fluorescence anisotropy; 5 mM Mg2+; text also says abolishes binding; Anisotropy: 50 mM Tris/HCl pH 7.5, 150 mM NaCl, 5 mM MgCl2 (Fig 2), 25 C, 50 nM RNA; EMSA: same Tris/NaCl, 12% glycerol, 25 C; NMR: 25 mM Bis-Tris/HCl pH 6.0, 50 mM NaCl, 10% D2O, 37 C
T8 sequence: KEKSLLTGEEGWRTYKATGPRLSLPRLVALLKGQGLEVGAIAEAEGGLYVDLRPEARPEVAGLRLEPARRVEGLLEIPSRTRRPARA

B1: 32mer (structured_RNA)
RNA: GCAGGUCCCAAGGGUUGGGCUGUUCGCCCAUU
With B1 the binding signal (Hera_RBD R449A) was > 25 fold Kd increase, the binding signal (Hera_RBD R492A) was < 5 fold Kd increase and the binding signal (Hera_RBD K455A) was < 5 fold Kd increase. The binding signal (Hera_RBD R444A/R449A) was > 25 fold Kd increase, the Kd (Hera_core) was 1000 ± 180 nM and the binding signal (Hera_RBD A452C) was ~10 fold Kd increase. The binding signal (Hera_RBD G462C) was < 5 fold Kd increase and the binding signal (Hera_RBD K463A) was > 25 fold Kd increase.
